This note sets out measurements from US8398971B2, “Methods, compounds, and compositions for treatment and prophylaxis in the respiratory tract” (NexBio, Inc., priority 2009, dated 2013).

Where two headings read alike, the source gives them in different places. Bounds are passed on as bounds.

The subject of experiment [1] is muscarinic receptor mediated airway resistance. In words: airway resistance (Penh) in naive mice, methacholine challenged. Format: in vivo, BALB/c mice. The settings on record: for dosage level sufficient for reduced airway responsiveness: intranasal once daily for three days.
The test system is the same in experiment [2]. The class given is in vivo, BALB/c mice. The settings on record: Example 5, 5, 10 and 20 mg/ml carbachol.

B1: DAS181: fusion protein comprising a catalytic domain of a sialidase, and an anchoring domain (SEQ ID NO:21) (protein)
chain: MGDHPQATPAPAPDASTELPASMSQAQHLAANTATDNYRIPAITTAPNGDLLISYDERPKDNGNGGSDAPNPNHIVQRRSTDGGKTWSAPTYIHQGTETGKKVGYSDPSYVVDHQTGTIFNFHVKSYDQGWGGSRGGTDPENRGIIQAEVSTSTDNGWTWTHRTITADITKDKPWTARFAASGQGIQIQHGPHAGRLVQQYTIRTAGGAVQAVSVYSDDHGKTWQAGTPIGTGMDENKVVELSDGSLMLNSRASDGSGFRKVAHSTDGGQTWSEPVSDKNLPDSVDNAQIIRAFPNAAPDDPRAKVLLLSHSPNPRPWSRDRGTISMSCDDGASWTTSKVFHEPFVGYTTIAVQSDGSIGLLSEDAHNGADYGGIWYRNFTMNWLGEQCGQKPAKRKKKGGKNGKNRRNRKKKNP
As to B1, the “difference in airway resistance between dose groups” value in experiment [1] (Example 3, 0.06, 0.1, 0.6 mg/kg) was “No difference was observed between the different dose groups”; in experiment [1] (Example 8, 0.0008, 0.004, 0.02, 0.1 mg/kg), “No difference was observed between the different dose groups”. Moreover, the “airway resistance vs PBS” value in experiment [1] (Example 3, 0.06, 0.1 or 0.6 mg/kg intranasal once daily for three days, 48 mg/ml Mch) is “significantly reduced airway resistance”; in experiment [1] (Example 7, 0.6 mg/kg, three days of treatment, 24 and 48 mg/ml Mch), “significantly reduced airway resistance”; in experiment [1] (Example 7, 0.6 mg/kg, two days of treatment, 3, 6 and 48 mg/ml methacholine) it was “not at 3, 6 and 48 mg/ml”; in experiment [1] (Example 7, 0.6 mg/kg, two days of treatment, 12 and 24 mg/ml methacholine), “appears to reduce airway resistance”; in experiment [1] (Example 8, 0.0008, 0.004, 0.02 or 0.1 mg/kg once daily for three days, 24 and 48 mg/ml Mch) it was “significantly reduced airway resistance”; in experiment [1] (Example 9, all doses 10 ng/kg to 0.1 mg/kg, 24 mg/ml Mch), “reduced airway resistance”. In experiment [2] (0.6 mg/kg once daily for three days), the “airway resistance vs PBS” value is given as “significantly reduced airway resistance”. In addition, the “dosage level sufficient for reduced airway responsiveness” value in experiment [1] (Example 3) is listed as at most 0.06 mg/kg; in experiment [1] (Example 8) it was at most 0.0008 mg/kg. In addition, the “airway resistance vs PBS control” value in experiment [1] (Example 4, 0.6 mg/kg once daily for three days, 6, 12, 24 and 48 mg/ml Mch) was “significantly reduced airway resistance”. In addition, the “airway resistance vs baseline” value is “did not increase airway resistance above baseline” in experiment [1] (Example 4, 0.6 mg/kg, 3 and 6 mg/ml methacholine); “increased airway resistance above baseline” in experiment [1] (Example 4, 0.6 mg/kg, 12, 24 and 48 mg/ml methacholine); “increased airway resistance above baseline” in experiment [2] (0.6 mg/kg). Moreover, the “airway resistance in response to Mch challenge vs PBS” value in experiment [1] (Example 7, 0.6 mg/kg, one day of treatment) is “no difference in airway resistance”. The “average percentage change Penh (increase in airway resistance over baseline)” value in experiment [1] (Example 9, 10 ng/kg once daily three days, 24 mg/ml Mch, PBS 550-560%) is 525-530%; in experiment [1] (Example 9, 0.1 μg/kg, 24 mg/ml Mch), 450%; in experiment [1] (Example 9, 1 μg/kg, 24 mg/ml Mch), 525%; in experiment [1] (Example 9, 10 μg/kg, 24 mg/ml Mch), 225%; in experiment [1] (Example 9, 0.1 mg/kg, 24 mg/ml Mch), 200%. Besides, the “airway resistance in response to Mch” value in experiment [1] (Example 9, dose levels of 0.01 or 0.1 mg/kg) is given as “significantly reduced airway resistance”.
